Here are results for 8 molecules from PMC7263513 (bioRxiv, 2020).

B1: C146 (antibody, V domains shown)
VH: EVQLVESGGGLVKPGGSLRLSCAASGLTFTAYRMNWVRQAPGKGLEWLSSISNTNGDIYYADSVKGRFTISRDNAKNSLYLQMNSLRADDTAVYYCARDVASNYAYFDLWGQGTLVTVSS
VL: QSALTQPASVSGSPGQSITISCTGTSSDIGVYNYISWSQQHPGKAPKVMIYDVTNRPSGVSNRFSGSKSGNTASLTISGLQAEDEADYYCSSYRGSSTPYVFGTGTKVTVL
B2: C208 (antibody, V domains shown)
VH: EVQLVQSGAEVKKPGESLKISCKGSGYSFTSYWIGWVRQMPGKGLEWMGIIYPGDSDTRYSPSFQGQVTISADKSISTAYLKWSSLKASDSAMYYCARGPNLQNWFDPWGQGTLVTVSS
VL: EIVLTQSPGTLSLSPGERATLSCRASQSVSGSYLAWYQQRPGQAPRLLIYGASSRATGIPDRFSGSGSGTDFTLTISRLEPEDFAVYYCQQYGSSLTFGGGTKVEIK
B3: C212 (antibody, V domains shown)
VH: QVQLVQSGAEVKKPGASVKVSCKASGYTVTGYYIHWVRQAPGQGLEWMGWISPNSGGTNYAQKFQGWVTMTRDMSITTAYMELSRLRSDDTAVYYCARERYFDLGGMDVWGQGTTVTVSS
VL: LTQPASVSGSPGQSITISCTGTSSDVGSYNLVSWYQQHPGKAPKLMIYEDSKRPSGVSNRFSGSKSGNTASLTISGLQAEDEADYYCCSYAGSSTRLFGGGTKLTVL
B4: C214 (antibody, V domains shown)
VH: QVQLVESGGGVVQPGRSLRLSCAASGFTFSSYGMHWVRQAPGKGLEWVAAIWYDGSNKHYADSVKGRFTISRDNSKNTLYLQMNSLRAEDTAVYYCARDVGRVTTWFDPWGQGTLVTVSS
VL: not shown
B5: C210 (antibody, V domains shown)
VH: EVQLVESGGGLIQPGGSLRLSCAASGFTVSSNYMSWVRQAPGKGLEWVSVIYSGGSTFYADSVKGRFTFSRDNSKNTLYLQMNSLRAEDTAVYYCARDLMAYGMDVWGQGTTVTVSS
VL: DIQLTQSPSFLSASVGDRVTITCRASQGISSYLAWYQQKPGKAPKLLIYAASTLQSGVPSRFSGSGSGTEFTLTISSLQPEDFATYYCQQLNSYPQGTFGGGTKVEIK
B6: C211 (antibody, V domains shown)
VH: EVQLVESGGGLVQPGGSLRLSCAASEFTVSSNYMSWVRQAPGKGLEWVSVIYSGGSTFYADSVKGRFTISRDNSKNTLYLQMNSLRPEDTAVYYCARDYGDFYFDFWGQGTLVTVSS
VL: EIVMTQSPATLSVSPGERATLSCRASQSVSSNLAWYQQKPGQGPRLLIYGASTRATGIPARFSGSGSGTEFTLTISSLQSEDFAVYYCQQYNNWPRTFGQGTKVEIK
B7: C216 (antibody, V domains shown)
VH: EVQLVESGGGLVQPGGSLRLSCAASGFTFSSYDMHWVRQATGKGLEWVSAIGTAGDTYYPDSVKGRFTISRENAKNSLYLQMNSLRAGDTAVYYCARDRGSSGWYGWYFDLWGRGTLVTVSS
VL: not shown
B8: C215 (antibody, V domains shown)
VH: EVQLLESGGGLVQPGGSLRLSCAASGFTFSSYAMSWVRQAPGKGLEWVSAITDSGDGTFYADSVKGRFTISRDNSKNTLYLQMNSLRAEDTAVYYCASEEDYSNYVGWFDPWGQGTLVTVSS
VL: not shown

For the first assay, the target named is T1, SARS-CoV-2 receptor binding domain (RBD) (Severe acute respiratory syndrome …, UniProt P0DTC2). In words: ELISA.
B1: the binding result is recorded as “no binding (tested: >1000 ng/ml)”.
In the case of B2, the binding result is given as “no binding (tested: >1000 ng/ml)”.
Consider B3, for which the binding result is reported as “no binding (tested: >1000 ng/ml)”.

A further assay has as its target T1, SARS-CoV-2 receptor binding domain (RBD). In words: cell-based or functional assay.
As to B4, the “IC50 of neutralisation of SARS-CoV-2 pseudovirus (293T_(ACE2) cells)” value (“IC50” below) was over 1 µg/mL.
Consider B5, for which the “IC50” value was found to be 0.0507 µg/mL.
B6: the “IC50” value was 0.0128 µg/mL.
Regarding B7, the “IC50” value is over 1 µg/mL.
For the molecule B8, the “IC50” value is over 1 µg/mL.
